Molecular target: PRAME-004 peptide presented by HLA-A*02 on target cells (peptide-loaded T2 cells); PRAME-004-presenting tumor … (human)
Experiment: cell-based or functional assay

Binder | EC50 of IFNγ release, T2 cells loaded with PRAME-004 from 10 µM to 10 pM (FIG. 12) [µM] | EC50 of IFNγ release, T2 cells loaded with PRAME-004 from 10 µM to 10 pM (FIG. 13) [nM]
TCR R16P1E8 (TCR, V domains shown) V domain 1: QKEVEQDPGPLSVPEGAIVSLNCTYSNSAFQYFMWYRQYSRKGPELLMYTYSSGNKEDGRFTAQVDKSSKYISLFIRDSQPSDSATYLCAMSEAAGNKLTFGGGTRVLVKP V domain 2: EAGVAQSPRYKIIEKRQSVAFWCNPISGHATLYWYQQILGQGPKLLIQFQNNGVVDDSQLPKDRFSAERLKGVDSTLKIQPAKLEDSAVYLCASSYTNQGEAFFGQGTRLTVVE | ~1 | –
TCR R17P1D7 (TCR, V domains shown) V domain 1: QTVTQSQPEMSVQEAETVTLSCTYDTSESDYYLFWYKQPPSRQMILVIRQEAYKQQNATENRFSVNFQKAAKSFSLKISDSQLGDAAMYFCAYRWAQGGSEKLVFGKGTKLTVNP V domain 2: DIYQTPRYLVIGTGKKITLECSQTMGHDKMYWYQQDPGMELHLIHYSYGVNSTEKGDLSSESTVSRIRTEHFPLTLESARPSHTSQYLCATELWSSGGTGELFFGEGSRLTVLE | – | 1.83
